Measured values reported in patent US20250250593A1, “METHOD FOR PREPARING ALPHA-BRANCHED BETA'-HYDROXY CARBONYL COMPOUNDS BY ENZYMATIC-CATALYZED REDUCTIVE ALDOL REACTION” (Max-Planck-Gesellschaft zur Förderung der Wissenschaften …, priority 2022, published 2025).
Numbering of substitutions follows the chain as printed. Numbers in names are those of the source.

B1: Kitasatospora setae crotonyl-CoA carboxylase/reductase (KsCcr), wild type (WT), SEQ ID NO: 1 (Kitasatospora setae KM-6054) (protein)
chain: MQEILDAILSGDAASADYAALALPESYRAVTLHKGEERMFDGLASRDKDPRKSLHLDDVPLPELGPGEALVAVMASSVNYNTVWSSIFEPVSTFGFLERYGRLSPLTARHDLPYHVLGSDLAGVVLRTGAGVNAWKPGDEVVAHCLSVELESPDGHNDTMMDPEQRIWGFETNFGGLAQLALVKTNQLLPKPKHLTWEEAASPGLVNSTAYRQLVSRNGAGLKQGDNVLIWGASGGLGSYATQYALAGGATPICVVSSPRKADICRAMGAEAIIDRSAEGYRFWKDEHHQDPREWKRLGGKIREFTGGEDVDIVFEHPGRETFGASVYVTRKGGTIVTCASTSGYMHQYDNRYLWMSLKRIVGSHFANYREAFEANRLVAKGKIHPTLSKVYALEETGQAALDVHHNKHQGKVGVLCLAPREGLGVTDPELRSKHLTKINAFRNV
notes: gene provided by JGI
B2: Kitasatospora setae crotonyl-CoA carboxylase/reductase (KsCcr) variant His365Asn (H365N), SEQ ID NO: 19 (Kitasatospora setae KM-6054; H365N) (protein)
chain: B1 chain with H365N
notes: gene provided by JGI

What was measured:
Test in all cases: cells, lysate or membranes named
[1] = substrate: NC(=O)C1=CN([C@@H]2O[C@H](COP(=O)(O)OP(=O)(O)OC[C@H]3O[C@@H](n4cnc5c(N)ncnc54)[C@H](OP(=O)(O)O)[C@@H]3O)[C@@H](O)[C@H]2O)C=CC1; details: other: apparent KM, 100 mM K2HPO4 pH 8.0, 30 °C, other substrates at 10 times KM, mean ± standard error
[2] = substrate: C/C=C/C(=O)SCCNC(=O)CCNC(=O)[C@H](O)C(C)(C)COP(=O)(O)OP(=O)(O)OC[C@H]1O[C@@H](n2cnc3c(N)ncnc32)[C@H](O)[C@@H]1OP(=O)(O)O; assay type: biochemical, Kitasatospora setae; details: other substrates at 10 times KM, mean ± standard error
Description: (§1) His-tagged KsCcr and its variants were expressed in E. coli BL21 (DE3). Cells in terrific broth were grown at 37° C. to an OD600=0.8-1.0 upon which expression for 12-16 h at 23° C. was induced by the addition of 500 μM IPTG (Isopropyl-D-β-thiogalactopyranoside). Cells were harvested for 15 min at 7500× g at 4° C. then resuspended in 2 mL of buffer A (50 mM Tris, 500 mM NaCl, 1 M L-Proline, pH=7.5) per gram of pellet. The suspension was treated with 10 mg/mL of DNAse I, 5 mM MgCl2, 10 μg/ml of lysozyme and incubated on ice for 20 min upon which cells were lysed using a sonicator. The lysate was clarified at 45000× g at 4° C. for 40 min and then loaded onto a pre-equilibrated 1 mL HisTrap FF column and washed with 15% buffer B (50 mM Tris, 500 mM NaCl, 1 M L-Proline, 500 mM imidazole, pH=7.5) for 20-30 column volumes until the UV 280 nm reached the baseline level. The protein was eluted by applying 100% buffer B, collected then pooled and desalted into 12.5 mM Tris, 125 mM NaCl, 1 M L-Proline pH=7.5. […] The protein was flash frozen in N2 (I) and stored at −80° C. if not immediately used for assays.
(§2) Assays were performed on a Cary-60 UV/Vis spectrophotometer (Agilent) at 30° C. using quartz cuvettes (10 mm path length; Hellma) contained K2HPO4 pH=8.0 and 3 mM phenylhydrazine.
(§3) For reactions in which the full conversion to the aldol product was achieved assays were performed on a Cary-60 UV/Vis spectrophotometer (Agilent) at 30° C. using quartz cuvettes (1 mm, 3 mm or 10 mm path length; Hellma). Reactions were performed in 100 mM K2HPO4 pH=8.0. Kinetic parameters for one substrate were determined by varying its concentration while the others were kept constant at 10 times their KM value. […] For reactions where both butyryl-CoA and the aldol product where formed the steady state parameters were determined using a discontinuous assay. Reactions of 100 μL volume were performed in 100 mM K2HPO4 pH=8.0 at 30° C. and each concentration was assayed in triplicates. Samples of 20 μL reaction were quenched with 2 μL of 50% formic acid and centrifuged for 10 min at 17′000 g at 4° C. 10 μL of this solution were diluted in 40 μL of 500 mM Tris HCl pH=7 and incubated overnight at room temperature. Samples were analyzed using by HPLC over an Agilent Eclipse Plus C18, 3.5 μm 100 Å, 100×2.1 mm, 4.6×100 mm column using 5% to 30% acetonitrile gradient over 7.5 min with 25 mM ammonium formate pH=8.1 as the aqueous phase.

[3] = substrate: NC(=O)C1=CN([C@@H]2O[C@H](COP(=O)(O)OP(=O)(O)OC[C@H]3O[C@@H](n4cnc5c(N)ncnc54)[C@H](OP(=O)(O)O)[C@@H]3O)[C@@H](O)[C@H]2O)C=CC1; assay type: biochemical, Kitasatospora setae; details: other: 100 mM K2HPO4 pH 8.0, 30 °C, other substrates at 10 times KM, mean ± standard error
Description: as §1, §2, §3

[4] = substrate: C=O; assay type: biochemical, Kitasatospora setae; details: other: calculated with K = 1000 for the equilibrium between formaldehyde and its methylene diol form, pH 8.0, 30 °C
Description: as §1, §2, §3

[5] = other: apparent KM, 100 mM K2HPO4 pH 8.0, 30 °C
[6] = other: 100 mM K2HPO4 pH 8.0, 30 °C

Protein | Km [1] | Km [2, 5] | kcat [2, 5] | Km [2, 6] | kcat [2, 6] | Km [3] | Km [4] | kcat [4]
B1 | 389 ± 49 µM | 33 ± 4 µM | 30 ± 1 s⁻¹ |  |  |  |  | 
B2 |  |  |  | 69 ± 17 µM | 3.1 ± 0.2 s⁻¹ | 16 ± 7 µM | 66 ± 23 µM | 3.1 ± 0.2 s⁻¹
